Measurements as given in article PMC5128726, “Mechanism and Regulation of DNA-Protein Crosslink Repair by the DNA-Dependent Metalloprotease SPRTN”.
Positions count from the first letter of the chain named.

T1: SPRTN-EQ (Homo sapiens, UniProt Q9H040 1-489, E112Q)
T1 sequence: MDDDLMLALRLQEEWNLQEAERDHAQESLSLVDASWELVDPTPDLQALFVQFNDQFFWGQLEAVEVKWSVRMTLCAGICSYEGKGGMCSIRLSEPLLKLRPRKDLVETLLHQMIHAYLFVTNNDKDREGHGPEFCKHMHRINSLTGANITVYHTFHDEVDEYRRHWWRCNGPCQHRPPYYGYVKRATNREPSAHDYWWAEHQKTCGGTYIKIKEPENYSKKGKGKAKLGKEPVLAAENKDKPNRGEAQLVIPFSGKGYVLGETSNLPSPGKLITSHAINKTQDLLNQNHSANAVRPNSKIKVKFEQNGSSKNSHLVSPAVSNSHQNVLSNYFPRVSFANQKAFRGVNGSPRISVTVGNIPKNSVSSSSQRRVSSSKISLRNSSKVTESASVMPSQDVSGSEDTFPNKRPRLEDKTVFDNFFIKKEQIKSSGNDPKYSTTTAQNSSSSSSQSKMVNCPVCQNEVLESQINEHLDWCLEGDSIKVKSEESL

T2: SPRTN 1-199 (Homo sapiens, UniProt Q9H040 1-199)
T2 sequence: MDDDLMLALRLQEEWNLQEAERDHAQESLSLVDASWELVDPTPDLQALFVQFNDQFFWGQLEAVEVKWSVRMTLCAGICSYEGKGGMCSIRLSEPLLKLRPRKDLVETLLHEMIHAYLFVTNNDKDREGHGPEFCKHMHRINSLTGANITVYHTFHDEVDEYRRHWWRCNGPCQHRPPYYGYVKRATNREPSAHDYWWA

T3: SPRTN 200-250 (Homo sapiens, UniProt Q9H040 200-250)
T3 sequence: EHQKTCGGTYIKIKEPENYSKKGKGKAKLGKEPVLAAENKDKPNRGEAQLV

T4: SPRTN WT (Homo sapiens, UniProt Q9H040 1-489)
T4 sequence: T1 sequence with Q112E

T5: SPRTN 247-489 (Homo sapiens, UniProt Q9H040 247-489)
T5 sequence: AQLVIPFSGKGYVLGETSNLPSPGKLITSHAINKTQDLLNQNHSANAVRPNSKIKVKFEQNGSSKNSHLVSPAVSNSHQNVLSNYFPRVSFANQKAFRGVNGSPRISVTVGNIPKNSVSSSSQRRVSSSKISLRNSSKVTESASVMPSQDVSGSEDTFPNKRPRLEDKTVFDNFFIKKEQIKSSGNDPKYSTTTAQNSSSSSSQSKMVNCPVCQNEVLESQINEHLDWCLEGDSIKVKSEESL


Tests used:
SPRTN-EQ = molecular target: T1, SPRTN-EQ; experiment: SAXS; 1:1.2 protein:DNA; Rg +8-10 A, Dmax +30 A; 50 mM HEPES pH 7.5, 75 mM KCl, 1% glycerol; Oligo EMSA: protein in 250 mM NaCl, 50 mM HEPES pH 7.5, 10% glycerol mixed 1:1 with DNA in 0.2 mg/ml BSA, 15 uM (so in the source) HEPES pH 7.5; 20 min on ice; 6% PAGE. Phage DNA: 0.8% agarose, 4 C; conditions: protein: recombinant; tags: N-terminal GST, C-terminal Strep
SPRTN 1-199 = molecular target: T2, SPRTN 1-199; experiment: EMSA; 250 nM DNA, 0.25-1 uM protein; Oligo EMSA: protein in 250 mM NaCl, 50 mM HEPES pH 7.5, 10% glycerol mixed 1:1 with DNA in 0.2 mg/ml BSA, 15 uM (so in the source) HEPES pH 7.5; 20 min on ice; 6% PAGE. Phage DNA: 0.8% agarose, 4 C; conditions: protein: recombinant; tags: N-terminal GST, C-terminal Strep; label: 5' Alexa488
SPRTN 200-250 = molecular target: T3, SPRTN 200-250; experiment: as above; conditions: protein: recombinant; tags: GST; label: 5' Alexa488
SPRTN WT = molecular target: T4, SPRTN WT; experiment: EMSA; 250 nM DNA, 0.5-1 uM protein; Oligo EMSA: protein in 250 mM NaCl, 50 mM HEPES pH 7.5, 10% glycerol mixed 1:1 with DNA in 0.2 mg/ml BSA, 15 uM (so in the source) HEPES pH 7.5; 20 min on ice; 6% PAGE. Phage DNA: 0.8% agarose, 4 C; conditions: protein: recombinant; tags: N-terminal GST, C-terminal Strep; label: 5' Alexa488
SPRTN 247-489 = molecular target: T5, SPRTN 247-489; experiment: as above; conditions: protein: recombinant; label: 5' Alexa488

Binder | binding result (SPRTN-EQ) | binding result (SPRTN 1-199) | binding result (SPRTN 200-250) | binding result (SPRTN WT) | binding result (SPRTN 247-489)
ACGCTGCCGAATTCT (ssDNA) [15-mer ssDNA] | binds | – | – | – | –
ACGCTGCCGAATTCTACCAGTGCCTTGCTA (ssDNA) [Alexa488 30-mer ss oligonucleotide] | – | no binding | binds | binds | no binding
